Assay results from article doi:10.1101/2021.04.07.438830 (bioRxiv, 2021).

Target: T1, GST-KPC2 (UniProt Q9BSL1 1-405)
T1 sequence: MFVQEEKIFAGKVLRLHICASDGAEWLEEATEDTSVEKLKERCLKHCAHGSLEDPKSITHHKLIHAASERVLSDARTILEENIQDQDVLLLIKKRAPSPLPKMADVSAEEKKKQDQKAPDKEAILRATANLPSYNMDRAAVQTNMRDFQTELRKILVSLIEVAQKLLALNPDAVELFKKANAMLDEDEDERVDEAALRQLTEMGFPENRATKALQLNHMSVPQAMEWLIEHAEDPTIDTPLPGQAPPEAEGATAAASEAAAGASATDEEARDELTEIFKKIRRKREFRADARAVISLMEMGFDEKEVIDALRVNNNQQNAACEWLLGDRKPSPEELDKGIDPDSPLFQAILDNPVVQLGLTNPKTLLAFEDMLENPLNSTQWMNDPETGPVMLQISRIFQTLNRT
Test: pull-down

B1: GST-p65 (1-307) (domain or fragment)
chain: MDELFPLIFPAEPAQASGPYVEIIEQPKQRGMRFRYKCEGRSAGSIPGERSTDTTKTHPTIKINGYTGPGTVRISLVTKDPPHRPHPHELVGKDCRDGFYEAELCPDRCIHSFQNLGIQCVKKRDLEQAISQRIQTNNNPFQVPIEEQRGDYDLNAVRLCFQVTVRDPSGRPLRLPPVLSHPIFDNRAPNTAELKICRVNRNSGSCLGGDEIFLLCDKVQKEDIEVYFTGPGWEARGSFSQADVHRQVAIVFRTPPYADPSLQAPVRVSMQLRRPSDRELSEPMEFQYLPDTDDRHRIEEKRKRTYE
B1: binds.
